Test results from the NTF2 design screens of Basanta et al. (2020).

Assay: protease stability score; higher = more stable; yeast display proteolysis, trypsin and chymotrypsin;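 further: log10 excess protease needed over predicted unfolded state with 0 meaning unfolded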

DEENRHQINEMWKQIQTNNPDEVMKQLDKDVQVVVGDKQIRGREEFAKHVEQLLREMDVEYHSIKVKVHNGEAHVKVRHTVDVNGKPREDTLDVQLQMKNGHVKHFELRIDEDKLEKLKR
protease stability score: -0.169

DEENRHVAQELVKAEKSGDPKRAQELLDPNVRINVGDKTVQGREQHTQELEREKRELRIRIKSMHLKVEGDHVRIEATVSKTQDGQPRESKRSISIHMKNGKAKNIQVTYHK
protease stability score: 0.13

DEENRKDAEKYMKVTENNNPDEVSKLVDPNAKLEIGDKTYHGDEWMMDQQQQDRDQARIEVKRVDIKVHNGQINARVRFVKEENGKPDRRDVDIKMNIHNGRLKRAQFKHTE
protease stability score: 0.064

DEENRKIAKKLVEAMHTNDEETLEKMFDPNVRFDVGDREVHGKEQWKREQHKKNREARFEIQRYTISYEGDKAVVRIHQVEDHNGQPREDTYVMHVEVHNGKVKRVVQRKDS
protease stability score: -0.129

DEENRKILSEVLQALQEGDEHRVRELMDPNARFQVGDKVITGMDNIKKHLQELKRQIKWHFTMKSISAHDGQARATADAEYNHNGRPQDVRVTFRVVFHNGEVHHFSYDYKP
protease stability score: 0.583

DEENRKQFEEIVRVWNKGDEKRFNNLFDPNARFRYGDKEYKGNQSLMNWWRHLKKQARVEIDVKEVHVDGDKVHAHFRVTFDINGRPETQDVDVVLTVQNGRAKNFDNRIDPEFMRRVQS
protease stability score: 0.141

DEENRKVFEEILEAKKRGDPKQLERNVDPNVKIYYGDKDFHGRSQLSKELEKVRRELHLHLDFKRIEYHGDSVDVELKVNQQHNGKPDESDRVFHARLHNGRLEHVDARDRK
protease stability score: -0.019

DEENRQLAENFLTAMEDNNPEHLSELADPNAKFHYGNKRIHGREKFMHEVEHRNKRIRYSIKSYKITVSGDKIEIDLTFTFRHNGQPDERRRTIHMQMENGQIRSVEYNDNK
protease stability score: 0.337

DEENRRNFERLIEAIRTNNPSDVEQLVDPNVRFQVGNEVYNGREQFSKDVERLNRQINITIHVRRLHVHGEKVVVDFTYQQEVNGRPNSHRVKWDATLENGKIKSARNTFDEEFEKELTK
protease stability score: -0.091

DEENSEAMKRWFNAMETGDPDKVKEQLDENAKIEVGDKRIHGRDQAREEVRKMLERWEIRIKIDEIDVHGEKVVVKFRQHNDRNGEPDNQTVVFIAIFDNGKATRWLLTTDG
protease stability score: 0.289

DEENSKVYEEWLKAVHNGDPDQVRRQIDPNVKINVGEFDLKGRETVAEHVKKMKDEAHVDQDIHSIEIQGDKVRVDAQYSAEINGKPTSNHLDASVNVKNGQIKRVDVEFSK
protease stability score: -0.131

DEENSRILKELLRAIRRGDEERAKELVDPNAKFQVGNKNVHGRDHWAQELRKEKEKIRFDMHIKHVKVDNGKIKVDLRVQVDVDGRPVTNRVKLTVELHNGRLTHLRVEMDEDQERKLKK
protease stability score: 0.366

DEENTKVAHEWLRNLERNDPKKLNELADPNAHFNVGDKQVQGMDEFERRIEDKKKEMRMKIDDYKARVHNGHVRVDVIVVIDHNGKPDKKRNVQFFDMENGRISRINQQDTG
protease stability score: -0.164

DEENVDRAERLLDALRSGNPNTVRELMDKHVKIQIGDKHLHGREQADKKAEDDSKEINEEVKSVDVKATGNNVVIDMDVSATVDGRPVTFHRVLVIRMHNGKIQEIEIRMSEDDIRNYKK
protease stability score: 0.207

DEENVDRMEEIIRSGDFKELLELADPNVKVVVGDKEYSGRHVATTVLQSLYEQVDHHKVHSVQNEGETVEFDLKVVVNGQEMRMRFVIVFENGRIKTIQIEFTDPRQEEKFLKNIK
protease stability score: 1.08

DEENVEAAHRFFEALNTNNPDELVKQFDPNARFRYGDTDIHGREHFRKWVKDQLDQIRFTLTSMTANVHNGKVRIELRFIKHHNGRPRDVNQEVRADVHNGKIKNLSVSDRG
protease stability score: 0.563

DEENVKIARELLKNRTSGNEEHFKRLVDPNARFNVGDTRIHGREEYVKQVRDDFRNSRESIDVRSVSASGDKVEVDMKMHFEHNGQPRSKKVILDAKIHNGRLKEYRVEEEK
protease stability score: -0.045

DEENVKIFEEFLRAEQTNDPERAKELIDKDVRIRVGDKTYHGREEWVNTFEEQQRHLKVHYKHVDNTHRNGRVHVRMTFDAVTNGEPKEVTARVEAEFHNGKAKDIQVEYRG
protease stability score: -0.257

DEENVKKVQEQLERNDREKLKSNVDKNAEVRVGDKTYHGREDAKTVLEQLARQVDNMQWQSIRIKGEHIDAKMVVQINGKHIQVSIELTVHNGKISHFVIHARNEEVNETLKEAVD
protease stability score: 0.516

DEENVKQAKKFADAMRHGDPEKLAKLADENAKLVIGDKTVHGRDDLRRERKKLNEHSRQHVDVKSIEAENGRVDVTASMTLSHNGKPDQVHVKIHMRITNGQIEEVHVNYKP
protease stability score: -0.492
